Assay results: the nanobody polyreactivity screen of Harvey et al. (2022)

Experiment: yeast display, Sf9 membrane polyspecificity reagent, FACS + sequencing; frameworks hold sequencing errors
In short: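 A nanobody's polyreactivity label depends on the gate it was sorted from. Yeast display cells were stained with 10% biotinylated, detergent-solubilized Sf9 membrane reagent for 1 hour at 4 °C, enriched on streptavidin microbeads and sorted by FACS. The low and high (top ~1%) gates were set on anti-HA fluorescence for expression and streptavidin fluorescence for reagent binding.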

Sequence: QVQLVESGGGLVQAGGSLRLSCAASGFTFLHNAMGWYRQAPGKDRELVAAISYSGGSTYADSVKGRFTISRDNAKYTVYLQMNSLKPEDTADYYCNADYSSQDNFDYWGQGTQVTVSS
- polyreactivity (PSR sort gate): low polyreactivity

Sequence: QVQLVESGGGLVQAGGSLRLSCAASGFTFLKNAMGWYRQAPGKERELVAAITGSGGSTYYADSVKGRFTISRDNAKNTVYLQMNSLKPEDTAVYYCNVRRGLRAYEYWGQGTQVTVSS
- polyreactivity (PSR sort gate): high polyreactivity

Sequence: QVQLVESGGGLVQAGGSLRLSCAASGFTFLPYVMGWYRQAPGKERELVAAISSSGGSTYYADSVKGRFTISRDNAKNTVYLQMNSLKPEDTAVYYCAKEIGVRRRDYEDYEYWGQGTQVTVSS
- polyreactivity (PSR sort gate): low polyreactivity

Sequence: QVQLVESGGGLVQAGGSLRLSCAASGFTFLQYAMGWYRQAPGKERELVATISSGGSTYYADSVKGRFTISRDNAKNTVYLQMNSLTPEDTAVYYCNAEEHFHTYVLHFRPYYVRHDYWGKGTQVTVSS
- polyreactivity (PSR sort gate): low polyreactivity

Sequence: QVQLVESGGGLVQAGGSLRLSCAASGFTFLTYAMGWYRQAPGKERELVAAIDSGDSTKYADSVKGRFTISLDNAKNTVYLQMNSLKPEDTAVYYCNASRRYHVRAPYDYWGQGTQVTVSS
- polyreactivity (PSR sort gate): low polyreactivity

Sequence: QVQLVESGGGLVQAGGSLRLSCAASGFTFLYYAMGWYRHAPGKERELVAAITTGSSTNYADSVKGRFTISRDNAKNTVYLQMNSLKPEDTAVYYCAAEYYYRVWYGHYYEYDYWGQGTQVTVSS
- polyreactivity (PSR sort gate): high polyreactivity

Sequence: QVQLVESGGGLVQAGGSLRLSCAASGFTFLYYDMGWYRPAPGKERELVAAITSSGTSTYYADSVKGRFTISRDNAKNSVYLQMNSLKPEDTAVYYCAVLYTYAGRHRYGYWGQGTQVTVSS
- polyreactivity (PSR sort gate): high polyreactivity

Sequence: QVQLVESGGGLVQAGGSLRLSCAASGFTFNDYAMGRSRQAPGKERELVAAIDWSGGRTYYADSVKGRFTISRDYEKNTVYLQMKSLKPEDTAVYYCAAVLYSRLYWYSLDYWGQGTQVTVSS
- polyreactivity (PSR sort gate): low polyreactivity

Sequence: QVQLVESGGGLVQAGGSLRLSCAASGFTFNFYAMGWYRQAPGKERELVASITSSGARTYYADSVKGRFTISRDNAKNTVYLQMNSLKPEDTAVYYCAARVYRYSASRAYDYWGQGTQVTVSS
- polyreactivity (PSR sort gate): high polyreactivity

Sequence: QVQLVESGGGLVQAGGSLRLSCAASGFTFNGNAMGWYRQAPGKERELVAAISYSGGSTYYADSVKGRFTISRDNAKNTVYLQMNSLKPVDTAVFYCAADRTAYSVRAFTKDHSGHDYCGQGTQVTVSS
- polyreactivity (PSR sort gate): low polyreactivity

Sequence: QVQLVESGGGLVQAGGSLRLSCAASGFTFNKNPMGWYRQAPGKEREMVAAITSSGGSTYYADSVQGRFTISRDNAKNTVYLQMNSLKPEDTAVYYCAAYPQAFMADYEYWGQGTQVTVSS
- polyreactivity (PSR sort gate): low polyreactivity

Sequence: QVQLVESGGGLVQAGGSLRLSCAASGFTFNKYAMGWYRQAPGKERELVAAISSSGGSTRYADSVKGRFTISRDNAKNTVYLQMNSLKPEDTADYYCAVYVTSDSGWWLYDYWGQGTQVTVSS
- polyreactivity (PSR sort gate): high polyreactivity

Sequence: QVQLVESGGGLVQAGGSLRLSCAASGFTFNKYAMGWYRQAPGTERELVAAISSRGGSPYYADSVKGRFTISRDNAKNTVYLQMNSLKPEDTAVYYCAVYTIGYLAWYQKFDYWGQGTQVTVSS
- polyreactivity (PSR sort gate): high polyreactivity

Sequence: QVQLVESGGGLVQAGGSLRLSCAASGFTFNRYDMGWYRQAPGKERELVAAITGGSGSTYYADSVKGRFTISRDNAKNTVYLQMHSLKPEDTAVYDCAARRYRLSTPEFNYWGQGTQVTVSS
- polyreactivity (PSR sort gate): high polyreactivity

Sequence: QVQLVESGGGLVQAGGSLRLSCAASGFTFNWYTMGWYRQAPGKERELVAAIRGSGSRTYYADSVKGRFTISRDNAKNTVYLQMNSLKPEDTAVYYCATDYGLYSTWGRYYRYRYDYWGQGTQVTVSS
- polyreactivity (PSR sort gate): high polyreactivity

Sequence: QVQLVESGGGLVQAGGSLRLSCAASGFTFNYNAMGWYRQAPGKERELVAAISRSGGRTYYADSVKGRFTISRDNAKNTVYLQMNSLKPEDTAVYYCAADSRTNGYDYWGQGTQVTVSS
- polyreactivity (PSR sort gate): high polyreactivity

Sequence: QVQLVESGGGLVQAGGSLRLSCAASGFTFNYNTMGWYRPAPGKERELVARISRSGGRTYYADSVKGRFTISRDNAKNTVYLQMNSLKPEDTAVYYCNTDYYGVRHRYDYWGQGTQVTVSS
- polyreactivity (PSR sort gate): high polyreactivity

Sequence: QVQLVESGGGLVQAGGSLRLSCAASGFTFNYYAMGWYRQAPGKEREFVAAISYGGGDTYYADSVKGRFTISRDNAKNTVYLQMNSLKPEDTAVYYCNARFRKRAYRYDYWGQGTLVTVSS
- polyreactivity (PSR sort gate): high polyreactivity

Sequence: QVQLVESGGGLVQAGGSLRLSCAASGFTFNYYAMGWYRQATGKERELVAAIDSGGNTYYADSVKGRFTISRDNAKNNVYLLLNSLKPEDTAVYYCDAYSDYQYDYWGQGTQVTVSS
- polyreactivity (PSR sort gate): low polyreactivity

Sequence: QVQLVESGGGLVQAGGSLRLSCAASGFTFPANAMGWYRQAPGKERELVATITWSGGNTYYADSVKGRFTISRDNAKNTVYLQMNSLKPEDTAVYYCAKDYDPYHEQQSSEHDDYWGQGTQVTVSS
- polyreactivity (PSR sort gate): low polyreactivity

Sequence: QVQLVESGGGLVQAGGSLRLSCAASGFTFPFYAMGWYRQAPGKERELVAAITSRGGSTYYADSVKGRFTISRDNAKNTVYLQMNSLKPEDTAVYYCAADESGADYYYWGQGTQVTVSS
- polyreactivity (PSR sort gate): high polyreactivity

Sequence: QVQLVESGGGLVQAGGSLRLSCAASGFTFPFYTMGWYRQAPGKERELVAAITFSGDSTYYADSVKGRFTISRDNAKNTVYLQMNSLKPEDTAVYYCAVASYWGPEYDYWGQGTQVTVSS
- polyreactivity (PSR sort gate): low polyreactivity

Sequence: QVQLVESGGGLVQAGGSLRLSCAASGFTFPGYAMGWYRQAPGKERELVAAISYSSGSTYYADSVKGRFTISRDNAKNTVYLQMNSLKPEDTAVYYCAAYFSPVGFQYDYWGQGTQVTVSS
- polyreactivity (PSR sort gate): high polyreactivity

Sequence: QVQLVESGGGLVQAGGSLRLSCAASGFTFPLYAMGWYRQAPGKERELVAVISRSGGSTYYADSVKGRFTISRDNAKNTVYLQMNSLKPEDTAVYYCAARLVPRSPERGNYDYWGQGTQVTVSS
- polyreactivity (PSR sort gate): high polyreactivity

Sequence: QVQLVESGGGLVQAGGSLRLSCAASGFTFPQNAKGWYRQAPGKERELVAAITNGGTTYYADSVKGRFTISRDNAKNTVYLQMNSLKPEDTAVYYCAAYTYRYGSFKYGYWGQGTQVTVSS
- polyreactivity (PSR sort gate): low polyreactivity

Sequence: QVQLVESGGGLVQAGGSLRLSCAASGFTFPRYAMGWYRQAPGKERELVAAITVGGGRTYYADSVKGRFTISRDNANNTVYLQMNSLKPEDTAVYYFAADSHASTYDYWGQGTQVTVSS
- polyreactivity (PSR sort gate): low polyreactivity

Sequence: QVQLVESGGGLVQAGGSLRLSCAASGFTFPSNAMGWYRQAPGKERELYAAISSTDSTNYADSVKGRFTISRDNAKNTFYLQMNSLKPEDTAVYYCAKRYPRYRYNTRGNDYWGQGSQVTVSS
- polyreactivity (PSR sort gate): low polyreactivity

Sequence: QVQLVESGGGLVQAGGSLRLSCAASGFTFPVNAMGWYRQAPGKERELVAAITSGGRTNYADSVKGRFTISRDNAKNTVYLQMNSLKPEDTAVYYCAAKFGYYWNSRTSGYWGQGTQVTVSS
- polyreactivity (PSR sort gate): high polyreactivity

Sequence: QVQLVESGGGLVQAGGSLRLSCAASGFTFPVYAMGWYRPAPGIEREFVAASTKSGGGTYYADSVKGRCTLSRDNAKKTVYGQMNSLKPEETAVYYCAKASRRFLTLGSDYWGQGTQVTVSS
- polyreactivity (PSR sort gate): high polyreactivity

Sequence: QVQLVESGGGLVQAGGSLRLSCAASGFTFPYNAMGWYRPAPGTARELVAGISYGGGRTYYADSVKGRFTFSRDNAKNTVYLQMNSLKPEDTAVYYCARRPGAWKYVYTGDYWGQGTQVTVSS
- polyreactivity (PSR sort gate): high polyreactivity

Sequence: QVQLVESGGGLVQAGGSLRLSCAASGFTFPYNAMGWYRQAPGKERELVAAISRGGGRTYYADSVKGRFTISRDNAKNTVYLQMNSLKPEDTAVYYCAKAPGQDTPYPYGYWGQGTQVTVSS
- polyreactivity (PSR sort gate): high polyreactivity

Sequence: QVQLVESGGGLVQAGGSLRLSCAASGFTFPYNAMGWYRQPPGKERELVAAISRGAGRTYYADSVKGRFTISRDNAKNTVYLQMNSLKQEDTAVYYCAKAPGQDTPYPYGYWGQGTQVTVSS
- polyreactivity (PSR sort gate): high polyreactivity

Sequence: QVQLVESGGGLVQAGGSLRLSCAASGFTFPYYAMGWYRQAPGKERELVARISSGGSTNYADSVKGRFTISRDNAMNTVYLEMNSLKPEDTAVYYCNKGWYYRPRFYSSSDYWGQGTQVTVSS
- polyreactivity (PSR sort gate): high polyreactivity

Sequence: QVQLVESGGGLVQAGGSLRLSCAASGFTFPYYTMGWYRQAPGKERELVAAINRGGGSTYYADSVKGRFTISRDNAKNTVYLHMNSLKPEDTAVYYCACLRCLFPGRFDYWGQSTQVTVSS
- polyreactivity (PSR sort gate): high polyreactivity

Sequence: QVQLVESGGGLVQAGGSLRLSCAASGFTFPYYTMGWYRQAPGKERELVAAISKSGGSTYYADSVKGRFTISRDNAKNTVYLEMHSLKPEDTAVYYCNARRGSPAPYDYWGQGTQVTVSS
- polyreactivity (PSR sort gate): high polyreactivity

Sequence: QVQLVESGGGLVQAGGSLRLSCAASGFTFQAYAMGWYRQAPGKERELVAAISKSGGSTYYADSVKGRFTISRDNAKNTVYLQMNSLKPEDTAVYYCAARSWERYRAFIYWGQGTQVTVSS
- polyreactivity (PSR sort gate): high polyreactivity

Sequence: QVQLVESGGGLVQAGGSLRLSCAASGFTFQFYAMGWSRPAPGKERELVAAITWSGGSTYYADSVKGRFTISRDNAKNTVYLQMNSLKPEDTAVYYCAKDRRSYLSYIYDYWGQGTQVNVSS
- polyreactivity (PSR sort gate): high polyreactivity

Sequence: QVQLVESGGGLVQAGGSLRLSCAASGFTFQNNVMGWYRQAPGKERELVAAINSSGRTYYADSVKGRFTISRDNAKNTVYLQMNSLKPEDTAVFYCAASRRYRGVNRPGDYWGQGTQVTVSS
- polyreactivity (PSR sort gate): high polyreactivity

Sequence: QVQLVESGGGLVQAGGSLRLSCAASGFTFQNYAMGWYRQAPGKERELVAAIDSRGGRTYYADSVKGRFTISRDNAKNTVYLQMNSLNPEDTAVYYCAGAENKRFGSVGYYYWGQGTQVTVSS
- polyreactivity (PSR sort gate): low polyreactivity

Sequence: QVQLVESGGGLVQAGGSLRLSCAASGFTFQRYTMGWYRQAPGKERELVAAITRSGGRTYYADSVKGRFTISRDNAKNTVYLQMNSLKPEDTAVYYCAVDYRTRGDYWGQGTQVTVSS
- polyreactivity (PSR sort gate): high polyreactivity

Sequence: QVQLVESGGGLVQAGGSLRLSCAASGFTFQWYGMGWYRQAPGKERELVAAITWSGGRTNYADSVKGRFTISRDNAKNTVYLQMNSLKPEDTAVYYCNKVFPRRGGDDNYWGQGTQVTVSS
- polyreactivity (PSR sort gate): high polyreactivity

Sequence: QVQLVESGGGLVQAGGSLRLSCAASGFTFQYSAMGWSRQAPGKERDVVAAIRSNGGSTYYADSVKGRFTISRDNAKNTVYLQMNSLKPEDTAVYYSAARAYKTYDWGQGTQVTVSS
- polyreactivity (PSR sort gate): high polyreactivity

Sequence: QVQLVESGGGLVQAGGSLRLSCAASGFTFQYYAKGWYRQAPGKERELVAAISSSGGSTFYADSVKGRFTSSRDNAKNTVYLQMNSLKPEDTAVYYCATYTSPGYYYWGQGTQVTVSS
- polyreactivity (PSR sort gate): high polyreactivity
